This note sets out measurements from patent WO2025083273A1 (dated 2025).

For this assay, the target named is T1, human DR3 (TNFRSF25) expressed on cells (human, UniProt Q93038 25-417).
T1 sequence: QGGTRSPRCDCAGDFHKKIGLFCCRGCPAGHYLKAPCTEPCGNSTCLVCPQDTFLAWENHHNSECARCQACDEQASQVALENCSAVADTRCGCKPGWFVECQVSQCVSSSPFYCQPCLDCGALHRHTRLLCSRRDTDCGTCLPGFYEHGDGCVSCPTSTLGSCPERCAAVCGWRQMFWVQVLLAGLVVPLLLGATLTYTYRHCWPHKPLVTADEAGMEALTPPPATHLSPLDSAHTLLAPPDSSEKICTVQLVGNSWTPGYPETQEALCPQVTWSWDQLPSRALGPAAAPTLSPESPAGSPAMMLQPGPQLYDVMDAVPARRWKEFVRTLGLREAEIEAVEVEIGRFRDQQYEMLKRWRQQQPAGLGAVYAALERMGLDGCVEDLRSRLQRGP
As to the kind of experiment: cell-based or functional assay.

The molecule R347 IgG (antibody) registered a Signal (FLU), isotype control of 385000 FLU.

B1: VHg5/VLg1 (antibody, human IgG1, V domains shown)
VH: QVQLQQSGGGLVQAGGSLRLSCAASGFTFTSYAMSWVRQAPGKGLEWVATISDGDSYSYFPDSVKDRFIISRDNAKNSLFLQMNSLRAEDTAVYYCARDRIYGSVQYYAMDYWGRGTLVTVSS
VL: DVVMTQSPDSLAVSLGERATINCRASESVEFSGTSLMQWYQQKPGQPPKLLIYAASNVESGVPDRFSGSGSGTDFTLTISSLQAEDVVVYYCQQSRKLPYTFGGGTKVEIK
B1: the “Signal (FLU)” value was found to be 410000 FLU.

B2: VHg5/VLg4 (antibody, human IgG1, V domains shown)
VH: QVQLQQSGGGLVQAGGSLRLSCAASGFTFTSYAMSWVRQAPGKGLEWVATISDGDSYSYFPDSVKDRFIISRDNAKNSLFLQMNSLRAEDTAVYYCARDRIYGSVQYYAMDYWGRGTLVTVSS
VL: DVVMTQSPDSLAVSLGERATISCRASESVEFSGTSLMQWYQQKPRQPLKLLIYAASNVESGVPDRFSGSGSGTDFTLTISSLQAEDVAVYYCQQSRKLPYTFGQGTRLEIK
On to B2, for which the “Signal (FLU)” value is 1.44e+06 FLU.

B3: VHg5/VLg6 (antibody, human IgG1, V domains shown)
VH: QVQLQQSGGGLVQAGGSLRLSCAASGFTFTSYAMSWVRQAPGKGLEWVATISDGDSYSYFPDSVKDRFIISRDNAKNSLFLQMNSLRAEDTAVYYCARDRIYGSVQYYAMDYWGRGTLVTVSS
VL: DVVMTQSPPSLPVTPGEPASISCRASESVEFSGTSLMQWYLQKPGQSPQVLIYAASNVESGVPDRFSGSGSGTDFTLKISRVEAEDVGVYYCQQSRKLPYTFGQGTRLEIK
In the case of B3, the “Signal (FLU)” value came to 387000 FLU.

B4: VHg10/VLg13 (antibody, human IgG1, V domains shown)
VH: EVQLVESGGGLVQPGGSLRLSCAASGFTFSSYAMSWVRQAPGKGLEWVSTISDGDSYSYFPDSVKDRFTISRDNSKNTLYLQMNSLRAEDTAVYYCARDRIYGSVQYYAMDYWGQGTLVTVSS
VL: DIQMTQSPSSLSASVGDRVTITCRASESVEFSGTSLMQWYQQKPGKAPKLLIYAASNVESGVPSRFSGSGSGTDFTFTISSLQPEDIATYYCQQSRKLPYTFGQGTKLEIK
As to B4, the “Signal (FLU)” value turned out to be 3.27e+06 FLU.

B5: VHg3/mVL (antibody, human IgG1, V domains shown)
VH: EVQLVQSGGGLVKPGGSLRLSCAASGFKFSSYAMSWVRQAPGKGLEWLSTISDGDSYSYFPDSVKDRFIISRDNAKNSLYLQMNSLRVEDTGVYYCARDRIYGSVQYYAMDYWGQGTLVTVSS
VL: DIVLTQSPASLAVSLGQRATISCRASESVEFSGTSLMQWYQQRPGLPPKLLIYAASNVESGVPARFSGSGSGTDFSLNIHPVEEDDIAMYFCQQSRKLPYTFGGGTKLEIN
Regarding B5, the “Signal (FLU)” value amounted to 2.86e+06 FLU.

B6: VHg10/mVL (antibody, human IgG1, V domains shown)
VH: EVQLVESGGGLVQPGGSLRLSCAASGFTFSSYAMSWVRQAPGKGLEWVSTISDGDSYSYFPDSVKDRFTISRDNSKNTLYLQMNSLRAEDTAVYYCARDRIYGSVQYYAMDYWGQGTLVTVSS
VL: DIVLTQSPASLAVSLGQRATISCRASESVEFSGTSLMQWYQQRPGLPPKLLIYAASNVESGVPARFSGSGSGTDFSLNIHPVEEDDIAMYFCQQSRKLPYTFGGGTKLEIN
Regarding B6, the “Signal (FLU)” value stood at 3.2e+06 FLU.

B7: VHg10/VLg2 (antibody, human IgG1, V domains shown)
VH: EVQLVESGGGLVQPGGSLRLSCAASGFTFSSYAMSWVRQAPGKGLEWVSTISDGDSYSYFPDSVKDRFTISRDNSKNTLYLQMNSLRAEDTAVYYCARDRIYGSVQYYAMDYWGQGTLVTVSS
VL: DIQLTQSPSSLSASVGDRVTITCRASESVEFSGTSLMQWYQQKAGLAPKLLIYAASNVESGVPSRFSGSGSGTDFTLTISSLQPEDFGTYYCQQSRKLPYTFGQGTRLEIK
In the case of B7, the “Signal (FLU)” value worked out at 2.84e+06 FLU.

B8: VHg1/VLg1 (antibody, human IgG1, V domains shown)
VH: QVQLVQSGGGLVQPGGSLRLSCAASGFTFSSYAMSWVRQAPGKGLEWVSTISDGDSYSYFPDSVKDRFTISRDNSKNTLYLQMNSLRAEDTSVYYCARDRIYGSVQYYAMDYWGQGTLVTVSS
VL: DVVMTQSPDSLAVSLGERATINCRASESVEFSGTSLMQWYQQKPGQPPKLLIYAASNVESGVPDRFSGSGSGTDFTLTISSLQAEDVVVYYCQQSRKLPYTFGGGTKVEIK
For the molecule B8, the “Signal (FLU)” value amounted to 797000 FLU.

B9: VHg2/VLg1 (antibody, human IgG1, V domains shown)
VH: QMQLVQSGGGLVKPGGSLRLSCAASGFTFSSYAMSWIRQAPGKGLEWVSTISDGDSYSYFPDSVKDRFTISRDNAKNSLYLQMNSLRAEDTAVYYCTRDRIYGSVQYYAMDYWGRGTLVTVSS
VL: DVVMTQSPDSLAVSLGERATINCRASESVEFSGTSLMQWYQQKPGQPPKLLIYAASNVESGVPDRFSGSGSGTDFTLTISSLQAEDVVVYYCQQSRKLPYTFGGGTKVEIK
Consider B9, for which the “Signal (FLU)” value worked out at 402000 FLU.

B10: VHg2/VLg6 (antibody, human IgG1, V domains shown)
VH: QMQLVQSGGGLVKPGGSLRLSCAASGFTFSSYAMSWIRQAPGKGLEWVSTISDGDSYSYFPDSVKDRFTISRDNAKNSLYLQMNSLRAEDTAVYYCTRDRIYGSVQYYAMDYWGRGTLVTVSS
VL: DVVMTQSPPSLPVTPGEPASISCRASESVEFSGTSLMQWYLQKPGQSPQVLIYAASNVESGVPDRFSGSGSGTDFTLKISRVEAEDVGVYYCQQSRKLPYTFGQGTRLEIK
Turning to B10, the “Signal (FLU)” value worked out at 1.62e+06 FLU.

B11: VHg9/VLg4 (antibody, human IgG1, V domains shown)
VH: EVQLVESGGGLVKPGGSLRLSCAASGFTFSSYAMSWVRQAPGKGLEWVSTISDGDSYSYFPDSVKDRFTISRDNAKNSLYLQMNSLRAEDTAVYYCARDRIYGSVQYYAMDYWGQGTLVTVSS
VL: DVVMTQSPDSLAVSLGERATISCRASESVEFSGTSLMQWYQQKPRQPLKLLIYAASNVESGVPDRFSGSGSGTDFTLTISSLQAEDVAVYYCQQSRKLPYTFGQGTRLEIK
B11: the “Signal (FLU)” value worked out at 2.96e+06 FLU.

B12: VHg9/VLg12 (antibody, human IgG1, V domains shown)
VH: EVQLVESGGGLVKPGGSLRLSCAASGFTFSSYAMSWVRQAPGKGLEWVSTISDGDSYSYFPDSVKDRFTISRDNAKNSLYLQMNSLRAEDTAVYYCARDRIYGSVQYYAMDYWGQGTLVTVSS
VL: EIVLTQSPATLSLSPGERATLSCRASESVEFSGTSLMQWYQQKPGQAPRLLIYAASNVESGIPARFSGSGSGTDFTLTISSLEPEDFAVYYCQQSRKLPYTFGQGTKLEIK
Regarding B12, the “Signal (FLU)” value came out at 682000 FLU.

B13: VHg9/VLg5 (antibody, human IgG1, V domains shown)
VH: EVQLVESGGGLVKPGGSLRLSCAASGFTFSSYAMSWVRQAPGKGLEWVSTISDGDSYSYFPDSVKDRFTISRDNAKNSLYLQMNSLRAEDTAVYYCARDRIYGSVQYYAMDYWGQGTLVTVSS
VL: EIVLTQSPGTLSLSPGERGTLSCRASESVEFSGTSLMQWYQQKPGQAPRLLIYAASNVESGIPDRFSGSGSETDFTLTISRLEPEDLAVYYCQQSRKLPYTFGQGTRLEIK
Regarding B13, the “Signal (FLU)” value is 3.05e+06 FLU.

B14: VHg3/VLg6 (antibody, human IgG1, V domains shown)
VH: EVQLVQSGGGLVKPGGSLRLSCAASGFKFSSYAMSWVRQAPGKGLEWLSTISDGDSYSYFPDSVKDRFIISRDNAKNSLYLQMNSLRVEDTGVYYCARDRIYGSVQYYAMDYWGQGTLVTVSS
VL: DVVMTQSPPSLPVTPGEPASISCRASESVEFSGTSLMQWYLQKPGQSPQVLIYAASNVESGVPDRFSGSGSGTDFTLKISRVEAEDVGVYYCQQSRKLPYTFGQGTRLEIK
Regarding B14, the “Signal (FLU)” value was determined as 2.05e+06 FLU.

B15: VHg6/VLg5 (antibody, human IgG1, V domains shown)
VH: QVQLQQSGGGLVQPGGSLRLSCAASGFTFSSYAMSWVRQAPGKGLEWVATISDGDSYSYFPDSVKDRFTISRDNARNSLYLQMNSLRAEDTAVYYCARDRIYGSVQYYAMDYWGRGTLVTVSS
VL: EIVLTQSPGTLSLSPGERGTLSCRASESVEFSGTSLMQWYQQKPGQAPRLLIYAASNVESGIPDRFSGSGSETDFTLTISRLEPEDLAVYYCQQSRKLPYTFGQGTRLEIK
Take B15: the “Signal (FLU)” value is 2.85e+06 FLU.

B16: VHg9/VLg2 (antibody, human IgG1, V domains shown)
VH: EVQLVESGGGLVKPGGSLRLSCAASGFTFSSYAMSWVRQAPGKGLEWVSTISDGDSYSYFPDSVKDRFTISRDNAKNSLYLQMNSLRAEDTAVYYCARDRIYGSVQYYAMDYWGQGTLVTVSS
VL: DIQLTQSPSSLSASVGDRVTITCRASESVEFSGTSLMQWYQQKAGLAPKLLIYAASNVESGVPSRFSGSGSGTDFTLTISSLQPEDFGTYYCQQSRKLPYTFGQGTRLEIK
Turning to B16, the “Signal (FLU)” value was found to be 2.88e+06 FLU.

B17: VHg6/VLg6 (antibody, human IgG1, V domains shown)
VH: QVQLQQSGGGLVQPGGSLRLSCAASGFTFSSYAMSWVRQAPGKGLEWVATISDGDSYSYFPDSVKDRFTISRDNARNSLYLQMNSLRAEDTAVYYCARDRIYGSVQYYAMDYWGRGTLVTVSS
VL: DVVMTQSPPSLPVTPGEPASISCRASESVEFSGTSLMQWYLQKPGQSPQVLIYAASNVESGVPDRFSGSGSGTDFTLKISRVEAEDVGVYYCQQSRKLPYTFGQGTRLEIK
As for B17, the “Signal (FLU)” value worked out at 1.96e+06 FLU.

B18: VHg1/VLg6 (antibody, human IgG1, V domains shown)
VH: QVQLVQSGGGLVQPGGSLRLSCAASGFTFSSYAMSWVRQAPGKGLEWVSTISDGDSYSYFPDSVKDRFTISRDNSKNTLYLQMNSLRAEDTSVYYCARDRIYGSVQYYAMDYWGQGTLVTVSS
VL: DVVMTQSPPSLPVTPGEPASISCRASESVEFSGTSLMQWYLQKPGQSPQVLIYAASNVESGVPDRFSGSGSGTDFTLKISRVEAEDVGVYYCQQSRKLPYTFGQGTRLEIK
For the molecule B18, the “Signal (FLU)” value amounted to 1.5e+06 FLU.

B19: VHg3/VLg2 (antibody, human IgG1, V domains shown)
VH: EVQLVQSGGGLVKPGGSLRLSCAASGFKFSSYAMSWVRQAPGKGLEWLSTISDGDSYSYFPDSVKDRFIISRDNAKNSLYLQMNSLRVEDTGVYYCARDRIYGSVQYYAMDYWGQGTLVTVSS
VL: DIQLTQSPSSLSASVGDRVTITCRASESVEFSGTSLMQWYQQKAGLAPKLLIYAASNVESGVPSRFSGSGSGTDFTLTISSLQPEDFGTYYCQQSRKLPYTFGQGTRLEIK
Consider B19, for which the “Signal (FLU)” value was determined as 2.23e+06 FLU.
